Series [1] deals with T1, 33-mer gliadin peptide.
T1 sequence: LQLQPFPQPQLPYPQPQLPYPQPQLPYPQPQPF

The target in series [2] is T2, 33-mer gliadin peptide.
T2 chain: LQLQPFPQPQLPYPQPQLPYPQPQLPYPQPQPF

Turning to pepsin, the “residual intact 33-mer (1-33) by HPLC-MS, Control T2h (pepsin alone, 1 mg/ml), pH 3” value in the series with 33-mer gliadin peptide [1] was 95% residual.

B1: endopep-140 (protein)
chain: MPDLPTQRRSPRRSRRPAVLARLAGLRVGALVLALAVTTLTLISMPSANAAPAKPVVPHAKASSPTAQGQHPTSRVCRTPGRANEMTCLAMVRDDVIGPKGVQANDAPAGFGPADLLNAYNLPSAGSTETVAIVDAFDNPNAEADLGVYRQQYGLPACTTANGCFKKIDQRGGTSYPPPDAGWAGEIALDIDMVSAICPTCKILLVEADDNYMDNLGTAVNQAVSQGAKFVSNSYGGSEGSDEGQADDAYFHHDGVAITASSGDSGYGASYPAASPYVTSVGGTSLAKDTSSSRGWTESTWNGAGSGCSAYETKPSFQKDTGCARRTIADVSAVADPNTGVAVYNGGWHVYGGTSVSAPIIASVYALGGAPAAGSAPNSFPYDHPADLNDVTSGSNGSCSPAYLCTAGTGYDGPTGLGTPNGIAAFRSGPHAVVTGTVTDGTAPLASAQVKAGDVTATTDGQGHYTLSVPPGTYDVSASKFGYTGKTISGVQVADGQTVTEDFALTAKARVDVSGLVRDGSGHGWPVYATVRVKDQPTAVAYTDPKTGRYTLSLPTDDTYTLQVDPLYPGYTQDSHDVTVTSADVVHDVNVAVDQTTCSAPGYSYHYAGATQPFDGTTAPAGWTVDDKVGNGQTWVFNDPGSRGNKTGGTGGFAVIDSDHYGSGNTQDSTLFSPVTDFSARTHPILSFRSDWYGYTGQAGDLDLSVDGGTTWTNLKHYTASERGPRTETMDLSAAAGKSAVQVRFHFTGKFGYYWQVDDVFLGDRTCDPTSGGLVVGQVTDANTGAGVAGATVTSVDRPAEHATSAATPDDPNLGDGLFWMFSSVTGSHKFTATAGNYDSHDVTVNVAANWATAADIALSAPRLTVTPGAISKTVGWQKAATAALTLKNTGTSPVTAKIGEQPGGSTTATAGAPLQRVKGDFASGRLQQGKASGAKAGVTPYAPPWTAIADYASPIMDNGAVALNGKIYSVAGVDGANVLNKAYAYDPGTQAWTAIAPLATGREAPQATTTGGKLYVTGGWGSTGAAVAKTEIFDPSSGAWSAGADNPKPYAGSGAAVLDGKIYVVGGCLATCGTKDVQVYDPAANSWSSGPAYPENTAWLGCAGIDGKLYCAGGSAAASTKHGYVLDPASGTWSPIADLPIDLWAMGYSAANGKLIVSGGVTNGASTLTNQGFAYDPSANSWTALPNSNNALYRGASACGFYKIGGSLGQFNAVKSGEVLPGYDQCASTADVPWLSEDKTEVTIQPGQSVKVNVTLDANVPAITQPGTYTAQLTVGAKTPYAIPPVAVTMTVNPPGTWGKITGTLTGAGCTGSPAPLTGATLQIDSWAASYTLKTDKNGQYALWLDVRNNPLTLIAAKDGWAPQTRNVKITKLTSTTADFTLKPDHTCS
With B1, in the series with 33-mer gliadin peptide [2], the “33-mer disappearance by HPLC-MS, 8 uU enzyme, 2 h, pH 3” value is reported as “complete 33-mer disappearance after 2 h at pH 3 (not shown)”; the “residual intact 33-mer (1-33) by HPLC-MS, T0” value is 100% residual; the “residual intact 33-mer (1-33) by HPLC-MS, T30 + pepsin (1 mg/ml), 4 uU enzyme, pH 3” value was found to be 70% residual; the “residual intact 33-mer (1-33) by HPLC-MS, T30, 4 uU enzyme, pH 3” value turned out to be 50% residual. Besides, in the series with 33-mer gliadin peptide [2], the “residual intact 33-mer (1-33) by HPLC-MS, T2h + pepsin (1 mg/ml), 4 uU enzyme, pH 3” value was 45% residual and the “residual intact 33-mer (1-33) by HPLC-MS, T2h, 4 uU enzyme, pH 3” value worked out at 20% residual. Also, in the series with gliadin (Sigma G3375), the “proteolysis of gliadin, SDS-PAGE, 5 uU enzyme, pH 3, 37 C” value was “cleaved ... into small peptides to almost complete digestion in 2 hours”.

B2: endopep-40 (protein)
chain: MSRRVTGTILGGLILAMVPFLSTAANAAPQAAPASVSHPFHHSCATVKPGRASCNALVRSDIAQSAATLAHQAAAPSGLSPANLQSAYKLPSSTAGSGQTVAIVDAYDAPTAEADLNVYRSQFGLGACTTANGCFKKVDQNGGTSYPRKDGGWAQEISLDLDMVSAVCPNCKIVLVEAKTNSFANLGTAENTAASLANVISNSYGGSDASDASYGSYYNHPGKAITVSSGDAGYGVEYPASSHYVTAVGGTSLRTASTSRGWSETAWSGAGSGCSAYNTALSGQSGLTGCSRRAVADVSAVADPATGVAVYDSTAYQGQSGWMVFGGTSVAAPIIGGVYGLAANAASIDNNYPYAHTSSLFDVTSGSNGTCTTTKWCTAGTGWDGPTGLGTPNGTGAF
In the case of B2, in the series with 33-mer gliadin peptide [2], the “33-mer disappearance by HPLC-MS, 9 uU enzyme, 2 h, pH 3” value was “complete 33-mer disappearance after 2 h at pH 3 (not shown)”; the “residual intact 33-mer (1-33) by HPLC-MS, T0” value is on record as 100% residual; the “residual intact 33-mer (1-33) by HPLC-MS, T30 + pepsin (1 mg/ml), 2 uU enzyme, pH 3” value amounted to 70% residual; the “residual intact 33-mer (1-33) by HPLC-MS, T30, 2 uU enzyme, pH 3” value is reported as 50% residual. Moreover, in the series with 33-mer gliadin peptide [2], the “residual intact 33-mer (1-33) by HPLC-MS, T2h + pepsin (1 mg/ml), 2 uU enzyme, pH 3” value was found to be 30% residual and the “residual intact 33-mer (1-33) by HPLC-MS, T2h, 2 uU enzyme, pH 3” value was 20% residual. For the same molecule, in the series with gliadin (Sigma G3375), the “proteolysis of gliadin, SDS-PAGE, 5 uU enzyme, pH 3, 37 C” value is listed as “cleaved ... into small peptides to almost complete digestion in 2 hours”.

Values taken from US20140356345.
